# Measurements from patent US20250215089A1 (HARBOUR BIOMED SHANGHAI, published 2025).
# Substitutions are numbered along the chain they refer to. Names and notes keep the numbering of the source. Values joined by “and” are separate entries in the source; they are usually repeats but may differ in a detail not shown here. Equal entries are not always repeated.
# B1: PR006497 (antibody, human IgG1, kappa, V domains shown)
# VH: QVQLVQSGAEVKKPGASVKVSCKASGYTFAGYYMYWVRQAPGQGLEWMGWINPDSGAPTYAQKFQGRVTMTRDTSISTAYMELSRLRSDDTAVYYCAREKIYYGSGNYYPSFDYWGQGTLVTVSS
# VL: DIQLTQSPSFLSASVGDRVTITCRASQGISSYLAWYQQKPGKAPKLLIYAASTLQSGVPSRFSGSGSGTEFTLTISSLQPEDFATYYCQQLYSYPWTFGQGTKVEIKR
# notes: Variant of PR003379, L: N92Y; human IgG1 L234A, L235A, G237A
# B2: PR006504 (antibody, human IgG1, kappa, V domains shown)
# VH: B1 VH
# VL: B1 VL with Y92V
# notes: Variant of PR003379, L: N92V; human IgG1 L234A, L235A, G237A
# B3: PR006511 (antibody, human IgG1, kappa, V domains shown)
# VH: B1 VH
# VL: B1 VL with Y92N, S93N
# notes: Variant of PR003379, L: S93N; human IgG1 L234A, L235A, G237A
# B4: PR000960 (antibody, human IgG1, V domains shown)
# VH: QVQLVESGGGVVQPGMSLRLSCAASGFNFSNYGMYWVRQAPGKGQEWVAIIWYDGTKKHYADSVKGRFTISRDNSKNTLYLEMNSLRVEDTAVYYCAKNRAIFGVVPDASDIRGQGTMVTVSS
# notes: Fully human heavy-chain-only antibody (HCAb): VH fused to human IgG1 Fc; no light chain
# B5: PR002082 (antibody, human IgG1, V domains shown)
# VH: B4 VH with N28T, N31S
# notes: HCAb; PTM variant of PR000960 (N28T, N31S); human IgG1 Fc; no light chain
# B6: PR005878 (antibody, human IgG1, V domains shown)
# VH: B4 VH with N28T, N31S, I50S, W52R, D54T, K57E, I102L, V106I, A109D
# notes: HCAb; human IgG1 Fc; no light chain
# What was measured:
# human CD40 [1] = molecular target: T1, human CD40 (human, UniProt P25942 21-277); experiment: cell-based or functional assay
# T1 sequence (P25942 21-277): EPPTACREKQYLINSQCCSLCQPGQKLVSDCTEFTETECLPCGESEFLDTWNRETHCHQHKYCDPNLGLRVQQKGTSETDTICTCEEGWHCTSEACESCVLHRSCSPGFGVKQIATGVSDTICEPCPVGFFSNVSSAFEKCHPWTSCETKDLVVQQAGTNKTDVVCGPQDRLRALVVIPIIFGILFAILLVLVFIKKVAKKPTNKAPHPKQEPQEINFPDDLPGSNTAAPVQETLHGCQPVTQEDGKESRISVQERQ
# human CD40 [2] = molecular target: T1, human CD40; experiment: FACS, Raji cells
# Experimental: The cells were incubated at 4° C. for 1 hours in the dark. After the incubation, the cells were rinsed twice by adding pre-chilled PBS at 100 μL/well, and centrifuged at 500 g at 4° C. for 5 minutes, and the supernatant was discarded. Then, a fluorescent secondary antibody (goat anti-human IgG (H+L) secondary antibody, Alexa Fluor® 488 conjugate, Invitrogen, #A11013, 1:1000 dilution) was added at 100 μL/well, and the cells were incubated at 4° C. for 30 minutes in the dark. The cells were washed twice with pre-chilled PBS at 200 μL/well, and centrifuged at 500 g at 4° C. for 5 minutes, and the supernatant was discarded. Finally, the cells were resuspended in pre-chilled PBS at 200 μL/well. The fluorescence signal values were read using a BD FACS CANTOII flow cytometer or ACEA NovoCyte flow cytometer, and the data were processed and analyzed using FlowJo v10 software (FlowJo, LLC).
# (§1) Data processing and graphical analysis were performed using GraphPad Prism 8 software. The binding curve of the antibody to the target cell and parameters, such as EC₅₀ value were obtained by four-parameter nonlinear fitting.
# human PD-L1 [3] = molecular target: T2, human PD-L1 (human, UniProt Q9NZQ7 19-290); experiment: FACS, CHO-K1/hPD-L1 cells
# T2 construct: whole, on cells; also called hPD-L1; CD274
# T2 sequence (Q9NZQ7 19-290): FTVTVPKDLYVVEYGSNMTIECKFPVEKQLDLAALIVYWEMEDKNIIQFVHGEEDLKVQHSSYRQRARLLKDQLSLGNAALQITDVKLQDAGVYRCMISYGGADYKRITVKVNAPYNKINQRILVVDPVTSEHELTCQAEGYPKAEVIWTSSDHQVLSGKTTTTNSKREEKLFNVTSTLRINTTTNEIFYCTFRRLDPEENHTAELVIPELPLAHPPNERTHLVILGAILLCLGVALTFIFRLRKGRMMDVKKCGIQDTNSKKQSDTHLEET
# Experimental: Specifically, the cells expressing PD-L1 were digested and resuspended in PBS buffer containing 2% BSA. The cells were adjusted to a cell density of 1×10⁶ cells/mL, respectively. The cells were seeded in a 96-well V-bottom plate (Corning, #3894) at 100 μL/well, and the antibody to be tested at 2×final concentration with 4-fold concentration gradient dilution was then added at 100 μL/well. The cells were incubated at 4° C. for 2 hours in the dark. After the incubation, the cells were rinsed twice by adding pre-chilled PBS containing 2% BSA at 100 μL/well, and centrifuged at 500 g at 4° C. for 5 minutes, and the supernatant was discarded. […] The cells were washed twice by adding pre-chilled PBS containing 2% BSA at 100 µL/well, and centrifuged at 500 g at 4° C. for 5 minutes, and the supernatant was discarded. Finally, the cells were resuspended in pre-chilled PBS buffer containing 2% BSA at 200 μL/well. The fluorescence signal values were read using a BD FACS CANTOII flow cytometer or ACEA NovoCyte flow cytometer, and the data were processed and analyzed using FlowJo v10 software (FlowJo, LLC).
# as §1
# human PD-L1 [4] = molecular target: T2, human PD-L1; experiment: cell-based or functional assay
Binder,EC50 (human CD40 [2]),Maximum MFI (human CD40 [2]),EC50 (human PD-L1 [3]),Maximum MFI (human PD-L1 [3]),"EC50, Jurkat-NFAT-hPD1 reporter (human PD-L1 [4])","Maximum (RLU), Jurkat-NFAT-hPD1 reporter (human PD-L1 [4])",also measured
B1,252 pM,9200 MFI,–,–,–,–,"EC50, HEK293-hCD40-NFκB reporter, crosslinked (human CD40 [1]): 158 pM; EC50, HEK293-hCD40-NFκB reporter, uncrosslinked (human CD40 [1]): 479 pM; Fold (EC50 in the absence of crosslinking/EC50 in the presence of crosslinking) (human CD40 [1]): 3.03 fold; Maximum fold, HEK293-hCD40-NFκB reporter, crosslinked (human CD40 [1]): 4.77 fold; Maximum fold, HEK293-hCD40-NFκB reporter, uncrosslinked (human CD40 [1]): 4.61 fold"
B2,350 pM,12200 MFI,–,–,–,–,–
B3,386 pM,11800 MFI,–,–,–,–,–
B4,–,–,790 pM,23700 MFI,310 pM,18400 RLU,–
B5,–,–,860 pM and 1310 pM,–,217 pM,12100 RLU,–
B6,–,–,1080 pM,419000 MFI,166 pM,13400 RLU,–
